koff data for one protein are collected here from paper PMC2887044 (Journal of molecular biology, 2010).

Like-named read-outs stand apart in the source and are kept apart here.

Holding throughout (assay): FRET or BRET
Series [1] concerns the molecule itself.
Series [2] concerns the molecule itself. This is another data set of the same source.
Series [3] concerns the molecule itself. The source holds these as a separate data set.

As a reminder, the koff is the first-order rate constant of dissociation. Lower therefore signals a long-lived complex.

B1: Alexa-labelled apoC-II S61C (Alexa-488 apoC-II; Alexa-594 apoC-II) (natural protein, human, UniProt P02655 23-101, looked up)
chain: TQQPQQDEMPSPTFLTQVKESLSSYWESAKTAAQNLYEKTYLPAVDEKLRDLYSKSTAAMCTYTGIFTDQVLSVLKGEE
modifications: conjugated with Alexa dyes (Alexa 488 C5 maleimide or Alexa 594 C5 maleimide)
Turning to B1, the figures for the koff in series [1], in series [2] and in series [3] were 0.161 s⁻¹, 0.00639 s⁻¹ and 0.0125 s⁻¹, respectively.
